B1: GST-fused APB (PIF3 1-113 a.a.) (domain or fragment)
chain: MPLFELFRLTKAKLESAQDRNPSPPVDEVVELVWENGQISTQSQSSRSRNIPPPQANSSRAREIGNGSKTTMVDEIPMSVPSLMTGLSQDDDFVPWLNHHPSLDGYCSDFLRD
B2: GST-PIF3 (natural protein)
chain: MPLFELFRLTKAKLESAQDRNPSPPVDEVVELVWENGQISTQSQSSRSRNIPPPQANSSRAREIGNGSKTTMVDEIPMSVPSLMTGLSQDDDFVPWLNHHPSLDGYCSDFLRDVSSPVTVNEQESDMAVNQTAFPLFQRRKDGNESAPAASSSQYNGFQSHSLYGSDRARDLPSQQTNPDRFTQTQEPLITSNKPSLVNFSHFLRPATFAKTTNNNLHDTKEKSPQSPPNVFQTRVLGAKDSEDKVLNESVASATPKDNQKACLISEDSCRKDQESEKAVVCSSVGSGNSLDGPSESPSLSLKRKHSNIQDIDCHSEDVEEESGDGRKEAGPSRTGLGSKRSRSAEVHNLSERRRRDRINEKMRALQELIPNCNKVDKASMLDEAIEYLKSLQLQVQIMSMASGYYLPPAVMFPPGMGHYPAAAAAMAMGMGMPYAMGLPDLSRGGSSVNHGPQFQVSGMQQQPVAMGIPRVSGGGIFAGSSTIGNGSTRDLSGSKDQTTTNNNSNLKPIKRKQGSSDQFCGSS
B3: SBP-fused phyB^PSM (domain or fragment)
chain: MVSGVGGSGGGRGGGRGGEEEPSSSHTPNNRRGGEQAQSSGTKSLRPRSNTESMSKAIQQYTVDARLHAVFEQSGESGKSFDYSQSLKTTTYGSSVPEQQITAYLSRIQRGGYIQPFGCMIAVDESSFRIIGYSENAREMLGIMPQSVPTLEKPEILAMGTDVRSLFTSSSSILLERAFVAREITLLNPVWIHSKNTGKPFYAILHRIDVGVVIDLEPARTEDPALSIAGAVQSQKLAVRAISQLQALPGGDIKLLCDTVVESVRDLTGYDRVMVYKFHEDEHGEVVAESKRDDLEPYIGLHYPATDIPQASRFLFKQNRVRMIVDCNATPVLVVQDDRLTQSMCLVGSTLRAPHGCHSQYMANMGSIASLAMAVIINGNEDDGSNVASGRSSMRLWGLVVCHHTSSRCIPFPLRYACEFLMQAFGLQLNMELQLALQMSEKRVLRTQTLLCDMLLRDSPAGIVTQSPSIMDLVKCDGAAFLYHGKYYPLGVAPSEVQIKDVVEWLLANHADSTGLSTDSLGDAGYPGAAALGDAVCGMAVAYITKRDFLFWFRSHTAKEIKWGGAKHHPEDKDDGQRMHPRSSFQAFLEVVKSRSQPWETAEMDAIHSLQLILRDSFKESEAAMNSKVVDGVVQPCRDMAGEQGIDELGAV
modifications: chromophore-bound (phycocyanobilin, PCB)
B4: GST-tagged PIF1 (natural protein)
chain: MHHFVPDFDTDDDYVNNHNSSLNHLPRKSITTMGEDDDLMELLWQNGQVVVQNQRLHTKKPSSSPPKLLPSMDPQQQPSSDQNLFIQEDEMTSWLHYPLRDDDFCSDLLFSAAPTATATATVSQVTAARPPVSSTNESRPPVRNFMNFSRLRGDFNNGRGGESGPLLSKAVVRESTQVSPSATPSAAASESGLTRRTDGTDSSAVAGGGAYNRKGKAVAMTAPAIEITGTSSSVVSKSEIEPEKTNVDDRKRKEREATTTDETESRSEETKQARVSTTSTKRSRAAEVHNLSERKRRDRINERMKALQELIPRCNKSDKASMLDEAIEYMKSLQLQIQMMSMGCGMMPMMYPGMQQYMPHMAMGMGMNQPIPPPSFMPFPNMLAAQRPLPTQTHMAGSGPQYPVHASDPSRVFVPNQQYDPTSGQPQYPAGYTDPYQQFRGLHPTQPPQFQNQATSYPSSSRVSSSKESEDHGNHTTG

Experiments:
Assay in all cases: pull-down
[1] = molecular target: B3
[2] = molecular target: T1, SBP-fused full-length phyA (Arabidopsis thaliana, UniProt P14712 1-1122, chromophore-bound (phycocyanobilin, PCB))
T1 sequence: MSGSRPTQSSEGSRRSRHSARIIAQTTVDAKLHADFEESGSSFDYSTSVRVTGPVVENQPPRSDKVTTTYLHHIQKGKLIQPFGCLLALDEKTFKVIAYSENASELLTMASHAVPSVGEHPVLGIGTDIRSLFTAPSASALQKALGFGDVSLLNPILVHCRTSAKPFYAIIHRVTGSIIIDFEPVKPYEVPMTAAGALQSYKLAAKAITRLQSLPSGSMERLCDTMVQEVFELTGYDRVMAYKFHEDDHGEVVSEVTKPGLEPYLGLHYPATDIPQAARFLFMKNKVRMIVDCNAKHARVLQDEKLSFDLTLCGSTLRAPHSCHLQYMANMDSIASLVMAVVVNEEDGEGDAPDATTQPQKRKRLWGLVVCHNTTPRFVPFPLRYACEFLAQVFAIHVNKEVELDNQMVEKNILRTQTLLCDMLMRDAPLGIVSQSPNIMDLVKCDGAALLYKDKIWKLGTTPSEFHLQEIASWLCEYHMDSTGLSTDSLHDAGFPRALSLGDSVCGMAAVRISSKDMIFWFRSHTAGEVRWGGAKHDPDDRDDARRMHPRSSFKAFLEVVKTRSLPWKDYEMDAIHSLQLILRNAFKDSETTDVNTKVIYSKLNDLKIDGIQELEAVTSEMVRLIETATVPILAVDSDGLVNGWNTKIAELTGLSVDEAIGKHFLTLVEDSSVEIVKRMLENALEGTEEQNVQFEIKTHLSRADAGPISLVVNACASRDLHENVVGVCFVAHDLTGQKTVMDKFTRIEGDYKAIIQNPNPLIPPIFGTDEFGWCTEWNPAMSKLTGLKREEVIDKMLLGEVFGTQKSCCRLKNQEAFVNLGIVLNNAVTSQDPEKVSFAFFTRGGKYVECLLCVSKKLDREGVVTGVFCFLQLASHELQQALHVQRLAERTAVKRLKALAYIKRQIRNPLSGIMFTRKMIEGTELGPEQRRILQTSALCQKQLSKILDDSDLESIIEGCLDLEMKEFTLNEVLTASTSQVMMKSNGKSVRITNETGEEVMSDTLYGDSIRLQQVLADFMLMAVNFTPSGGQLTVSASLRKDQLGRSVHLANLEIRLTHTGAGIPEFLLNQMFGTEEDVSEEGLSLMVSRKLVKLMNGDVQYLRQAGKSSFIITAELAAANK

[3] = molecular target: B1
[4] = molecular target: T2, MBP-fused phyA^OPM (Arabidopsis thaliana, UniProt P14712 608-1122)
T2 sequence: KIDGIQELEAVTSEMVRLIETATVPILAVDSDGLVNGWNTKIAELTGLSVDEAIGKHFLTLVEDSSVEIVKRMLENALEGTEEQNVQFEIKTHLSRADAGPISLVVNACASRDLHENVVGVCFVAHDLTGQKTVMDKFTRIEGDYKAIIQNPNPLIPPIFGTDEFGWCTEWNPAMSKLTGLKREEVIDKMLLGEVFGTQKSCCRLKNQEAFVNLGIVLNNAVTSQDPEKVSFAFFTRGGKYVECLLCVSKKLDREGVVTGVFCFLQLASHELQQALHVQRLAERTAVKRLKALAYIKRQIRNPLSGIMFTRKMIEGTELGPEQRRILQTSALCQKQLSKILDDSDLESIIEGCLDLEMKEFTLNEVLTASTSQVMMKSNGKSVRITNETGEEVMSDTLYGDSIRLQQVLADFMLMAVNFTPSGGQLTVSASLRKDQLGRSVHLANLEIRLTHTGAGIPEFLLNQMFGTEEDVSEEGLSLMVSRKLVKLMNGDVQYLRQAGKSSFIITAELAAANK

[5] = molecular target: T3, MBP-fused phyB^OPM (Arabidopsis thaliana, UniProt P14713 642-1172)
T3 sequence: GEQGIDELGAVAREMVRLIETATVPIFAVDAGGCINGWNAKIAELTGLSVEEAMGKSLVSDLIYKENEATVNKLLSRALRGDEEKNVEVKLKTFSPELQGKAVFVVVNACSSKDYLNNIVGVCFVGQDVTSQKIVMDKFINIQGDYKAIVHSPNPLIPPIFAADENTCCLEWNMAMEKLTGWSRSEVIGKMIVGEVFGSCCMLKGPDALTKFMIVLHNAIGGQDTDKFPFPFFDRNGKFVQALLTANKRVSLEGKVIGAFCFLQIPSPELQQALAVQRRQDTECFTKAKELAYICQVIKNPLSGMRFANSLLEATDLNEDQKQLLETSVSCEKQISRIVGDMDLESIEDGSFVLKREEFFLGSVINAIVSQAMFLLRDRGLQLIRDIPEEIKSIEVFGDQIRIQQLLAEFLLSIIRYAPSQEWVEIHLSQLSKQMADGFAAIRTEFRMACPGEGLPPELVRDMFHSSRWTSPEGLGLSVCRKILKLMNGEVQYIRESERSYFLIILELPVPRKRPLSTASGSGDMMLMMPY

B1
binding result [1]: binds

B2
binding result [2]: binds
binding result [1]: binds

B3
fold strength against the phyB^OPM-APA interaction (m39 on m40) [3]: ~2 fold

B4
binding result [4]: binds
binding result [5]: binds

Reference: publication PMC12033333 (Nature Communications, 2025)
